Source: article PMC11289387, “Structure of the MlaC-MlaD complex reveals molecular basis of periplasmic phospholipid transport” (Nature Communications, 2024)

Target: the molecule itself
Assay: cryo-EM structure; cardiolipin-loaded MlaD^32-183 with MlaC-apo, cross-linked with 0.1% glutaraldehyde, 0.8 mg/mL in 20 mM Tris pH 8.0, 150 mM NaCl; 1:6 map at 4.35 Å, 2:6 map at 4.38 Å

B1: periplasmic domain of E. coli MlaD (residues 32-183), MlaD^32-183 (domain or fragment, UniProt P64604 32-183, looked up)
chain: TSIRTEPTYTLYATFDNIGGLKARSPVSIGGVVVGRVADITLDPKTYLPRVTLEIEQRYNHIPDTSSLSIRTSGLLGEQYLALNVGFEDPELGTAILKDGDTIQDTKSAMVLEDLIGQFLYGSKGDDNKNSGDAPAAAPGNNETTEPVGTTK
notes: synthesised (Genscript), cloned in pET26b; No cleavage of the His tag is described; In the functional rows of the MlaC mutants the wild-type MlaD stood as part of MlaFEDB in acceptor proteoliposomes, not as this fragment; source: E. coli BL21(DE3), purified (Ni-NTA, Superdex 200); lipid removed with β-OG and loaded with cardiolipin where stated
- stoichiometry N: 6
